Experimental data as given in the supplement of paper PMC9170038.

What was measured:
MS2 coat protein [1] = assay: apparent KD of MS2 coat protein; designed switch direction (-1 OFF switch, 1 ON switch): 1; higher = weaker reporter binding
Outline: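 Transcription of designed RNA switches on Illumina chips was done by stalled E. coli RNA polymerase. SNAP-549-labelled MS2 coat protein was then titrated in doubling steps from 0.7 or 1.5 nM to 3 µM, with steps of 0.8–1.5 h at the lowest and 10–20 min at the highest concentration. The per-design median over clusters of curve-fitted normalised fluorescence is reported as apparent KD.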

MS2 coat protein [2] = assay: apparent KD of MS2 coat protein; higher = weaker reporter binding; conditions: Eterna round: R107
Outline: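 With or without constant ligand, designed RNA switches in 100 mM Tris-HCl pH 7.5, 80 mM KCl and 4 mM MgCl2 were titrated with SNAP-549-labelled MS2 coat protein. Concentrations went up in twofold steps from 0.7 or 1.5 nM to 3 µM. The switches had been transcribed on-chip from Illumina sequencing clusters, and apparent KD is the per-design median of normalised cluster binding-curve fits.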

[3] = input ligand: microRNA oligo, concentration not stated
[4] = Eterna round: R95, input ligand: FMN 200 uM
[5] = Eterna round: R95, input ligand: microRNA oligo, concentration not stated
[6] = Eterna round: R95, input ligand: none
[7] = input ligand: theophylline 20 uM
[8] = input ligand: theophylline 2 mM
[9] = input ligand: tryptophan 2.4 mM

Sequence: AAAAAACAUGAGGAUCACCCAUGUAAAAAAAUGGGAGGAUAUACAAAAACGAAAGUCAAAGUAGAAGGCCUGAAAA [same state 5] (Eterna round: R96, puzzle: Same State 1)
- apparent KD of MS2 coat protein (MS2 coat protein [1]; [3]): 78.6 nM

Sequence: AAAAUGCGGGAAGGAUAUGGGAAAGGAAGUGUACCAGAAGGUCUCGCGGCCAAGGACAUGAGGAUCACCCAUGUGAACGCCCGA [PowerStrip SSNG 1.9] (Eterna round: R96, puzzle: Same State NG 1)
- apparent KD of MS2 coat protein (MS2 coat protein [1]; input ligand: FMN 200 uM): 98.1 nM
- apparent KD of MS2 coat protein (MS2 coat protein [1]; [3]): 41 nM
- apparent KD of MS2 coat protein (MS2 coat protein [1]; input ligand: none): 59.1 nM

Sequence: AAACCACAUGAGGAUCACCCAUGUAAAAAUAUGGGAGGAUAUCGGAAUAAAAUAAAGAAACGAGAAGGCCUAAAAA [59%, Flamingo, 5] (Eterna round: R96, puzzle: Same State 1)
- apparent KD of MS2 coat protein (MS2 coat protein [1]; input ligand: FMN 200 uM): 26.6 nM
- apparent KD of MS2 coat protein (MS2 coat protein [1]; [3]): 212 nM
- apparent KD of MS2 coat protein (MS2 coat protein [1]; input ligand: none): 256 nM

Sequence: AAAGAAAAACUAGAGGAUAUCCGAGUGGUAACAUGAGGAUCACCCAUGUGAUGAAAGGAACAUGAGGAGAAGGCUAGAAGAAAAA [JL Nando mod 8] (Eterna round: R96, puzzle: Same State 2)
- apparent KD of MS2 coat protein (MS2 coat protein [1]; input ligand: FMN 200 uM): 20.6 nM
- apparent KD of MS2 coat protein (MS2 coat protein [1]; [3]): 47.6 nM
- apparent KD of MS2 coat protein (MS2 coat protein [1]; input ligand: none): 56.5 nM

Sequence: AAAGACAUGGUGCAGGAUAUAUUAAUAGUCACAUGAGGAUCACCCAUGUUCAGAUAUCUGAACGAGUAGAAGGGCGAUGAAAAAA [SameState2 Malc#5] (Eterna round: R96, puzzle: Same State 2)
- apparent KD of MS2 coat protein (MS2 coat protein [1]; input ligand: FMN 200 uM): 530 nM
- apparent KD of MS2 coat protein (MS2 coat protein [1]; [3]): 28.7 nM
- apparent KD of MS2 coat protein (MS2 coat protein [1]; input ligand: none): 204 nM

Sequence: AAAGUGGGCUUAUUUGGAUUCUCGUCUGGACAUGAGGAUCACCCAUGUAGGCGCUUGGUCUGAGACUAAGCAGCCGA [Didiinso] (Eterna round: R96, puzzle: Sensor for hsa-mir-208a)
- apparent KD of MS2 coat protein (MS2 coat protein [1]; input ligand: FMN 200 uM): 113 nM
- apparent KD of MS2 coat protein (MS2 coat protein [1]; [3]): 28.5 nM
- apparent KD of MS2 coat protein (MS2 coat protein [1]; input ligand: none): 75.3 nM

Sequence: AAAUAAAACACAGGAUAUGCAGCCAAUACGGCGGCAGAAGGGUGAGACAUGAGGAUCACCCAUGUACACGUCCCACAGACGUGC [Mabege] (Eterna round: R96, puzzle: Same State NG 1)
- apparent KD of MS2 coat protein (MS2 coat protein [1]; input ligand: FMN 200 uM): 426 nM
- apparent KD of MS2 coat protein (MS2 coat protein [1]; [3]): 89.9 nM
- apparent KD of MS2 coat protein (MS2 coat protein [1]; input ligand: none): 119 nM

Sequence: AACAAACAUGAGGAUCACCCAUGUACAGACCUGGACAUUGUCGAGGAUAUCAGCAAGAAAACAGCUGAGAAGGUGACGCCAGAG [Eternabot solution 6] (Eterna round: R96, puzzle: Same State NG 3)
- apparent KD of MS2 coat protein (MS2 coat protein [1]; input ligand: FMN 200 uM): 30.8 nM
- apparent KD of MS2 coat protein (MS2 coat protein [1]; [3]): 52.2 nM
- apparent KD of MS2 coat protein (MS2 coat protein [1]; input ligand: none): 70.3 nM

Sequence: AACAAUCUAUCUGAGGAUAUCAUGAGAAUAACAUGAGGAUCACCCAUGUGCAGGAAAACUGCAUAUGAGAAGGCAGAUAGAUUGG [Mat - Same State 2 - Mod - D21] (puzzle: Same State 2)
- apparent KD of MS2 coat protein (MS2 coat protein [1]; [4]): 78.6 nM
- apparent KD of MS2 coat protein (MS2 coat protein [1]; [5]): 546 nM
- apparent KD of MS2 coat protein (MS2 coat protein [1]; [6]): 2730 nM

Sequence: AACAAUCUAUCUGAGGAUAUCAUGUCAAAGACAUGAGGAUCACCCAUGUACCAGGAAACUGGAUAUGAGAAGGCAGAUAGAUUGA [SS2: 1119] (Eterna round: R96, puzzle: Same State 2)
- apparent KD of MS2 coat protein (MS2 coat protein [1]; input ligand: FMN 200 uM): 16.6 nM
- apparent KD of MS2 coat protein (MS2 coat protein [1]; [3]): 80 nM
- apparent KD of MS2 coat protein (MS2 coat protein [1]; input ligand: none): 162 nM

Sequence: AACAAUCUAUCUGAGGAUAUCUUGAAAUAAACAUGAGGAUCACCCAUGUGCAGGAAAACUGCAUAUGAGAAGGCAGAUAGAUUGA [salish99_ss2_r3_028] (puzzle: Same State 2)
- apparent KD of MS2 coat protein (MS2 coat protein [1]; [4]): 14.5 nM
- apparent KD of MS2 coat protein (MS2 coat protein [1]; [5]): 124 nM
- apparent KD of MS2 coat protein (MS2 coat protein [1]; [6]): 148 nM

Sequence: AACCUAGGCAGAGGAUAUCUGGACGCGCGCACCAGAGAAGGCUGCGAGCCCUGAAUAUACAUGAGGAUCACCCAUGUCCCGCAC [Eternabot solution 15] (Eterna round: R96, puzzle: Same State NG 1)
- apparent KD of MS2 coat protein (MS2 coat protein [1]; input ligand: FMN 200 uM): 31.2 nM
- apparent KD of MS2 coat protein (MS2 coat protein [1]; [3]): 27.8 nM
- apparent KD of MS2 coat protein (MS2 coat protein [1]; input ligand: none): 26.5 nM

Sequence: AACUAUCUAUCUCAGGAUAUCAUGUCAAAGACAUGAGGAUCACCCAUGUACCAGGAAACUGGUUAUGAGAAGGGAGAUAGAUAGU [Mat - Same State 2 - Mod - D41] (puzzle: Same State 2)
- apparent KD of MS2 coat protein (MS2 coat protein [1]; [4]): 127 nM
- apparent KD of MS2 coat protein (MS2 coat protein [1]; [5]): 263 nM
- apparent KD of MS2 coat protein (MS2 coat protein [1]; [6]): 602 nM

Sequence: AACUAUCUAUCUGAGGAUAUCAUGAAAUAAACAUGAGGAUCACCCAUGUGCAGGAAAACUGCAUAUGAGAAGGCAGAUAGAUUGA [salish99_ss2_r3_021] (puzzle: Same State 2)
- apparent KD of MS2 coat protein (MS2 coat protein [1]; [4]): 66.6 nM
- apparent KD of MS2 coat protein (MS2 coat protein [1]; [5]): 1250 nM
- apparent KD of MS2 coat protein (MS2 coat protein [1]; [6]): 2000 nM

Sequence: AAGAAACAUGAGGAUCACCCAUGUAAUAAUAUGGGAGGAUAUACAAGGACAAUAGUCAAGGUAGAAGGCCUAAGAA [Mat - Same State 1 - Meechl mod - D142] (Eterna round: R96, puzzle: Same State 1)
- apparent KD of MS2 coat protein (MS2 coat protein [1]; [3]): 123 nM

Sequence: AAGAAACAUGAGGAUCACCCAUGUGAGAAUAUGGGAGGAUAUACAAGGACGUAAGUCAAGGUAGAAGGCCUAAGAA [Mat - Same State 1 - Meechl mod - D139] (Eterna round: R96, puzzle: Same State 1)
- apparent KD of MS2 coat protein (MS2 coat protein [1]; [3]): 143 nM

Sequence: UUAUAUAUGCGAAGGAGCGGGAAAUAUAUAUAUAUAAUCCUAACAUGAGGAUCACCCAUGUCCCAGGUAGGUCGCGCAUAUAUAG [12.C]
- apparent KD of MS2 coat protein (MS2 coat protein [2]; input ligand: arginine 13.2 mM): 38 nM
- apparent KD of MS2 coat protein (MS2 coat protein [2]; input ligand: none): 79 nM
- apparent KD of MS2 coat protein (MS2 coat protein [2]; [7]): 117 nM
- apparent KD of MS2 coat protein (MS2 coat protein [2]; [8]): 76.6 nM
- apparent KD of MS2 coat protein (MS2 coat protein [2]; [9]): 53.4 nM

Sequence: UUAUAUAUGCGAAGGAGCGGGAAAUAUAUAUAUAUAAUCCUAACAUGAGGAUCACCCAUGUCCCAGGUAGGUCGCGCAUAUAUGG [12.E]
- apparent KD of MS2 coat protein (MS2 coat protein [2]; input ligand: arginine 13.2 mM): 74.2 nM
- apparent KD of MS2 coat protein (MS2 coat protein [2]; input ligand: none): 84.4 nM
- apparent KD of MS2 coat protein (MS2 coat protein [2]; [7]): 76.8 nM
- apparent KD of MS2 coat protein (MS2 coat protein [2]; [8]): 95.1 nM
- apparent KD of MS2 coat protein (MS2 coat protein [2]; [9]): 75.7 nM

Sequence: UUAUGCAGGUCGGCCGCCACUACACACAUGAGGAUCACCCAUGUAGUUACUGGGUGAAGUGGCAGUAGGACCGGGACCCGCACAC [Brourdmod22]
- apparent KD of MS2 coat protein (MS2 coat protein [2]; input ligand: arginine 13.2 mM): 226 nM
- apparent KD of MS2 coat protein (MS2 coat protein [2]; input ligand: none): 485 nM
- apparent KD of MS2 coat protein (MS2 coat protein [2]; [7]): 561 nM
- apparent KD of MS2 coat protein (MS2 coat protein [2]; [8]): 715 nM
- apparent KD of MS2 coat protein (MS2 coat protein [2]; [9]): 258 nM
